Assay results as given in article PMC7092940 (2005).

Target: the molecule itself

B1: SARS 3CL proteinase (protein)
chain: SGFRKMAFPSGKVEGCMVQVTCGTTTLNGLWLDDTVYCPRHVICTAEDMLNPNYEDLLIRKSNHSFLVQAGNVQLRVIGHSMQNCLLRLKVDTSNPKTPKYKFVRIQPGQTFSVLACYNGSPSGVYQCAMRPNHTIKGSFLNGSCGSVGFNIDYDCVSFCYMHHMELPTGVHAGTDLEGKFYGPFVDRQTAQAAGTDTTITLNVLAWLYAAVINGDRWFLNRFTTTLNDFNLVAMKYNYEPLTQDHVDILGPLSAQTGIAVLDMCAALKELLQNGMNGRTILGSTILEDEFTPFDVVRQCSGVTFQ
In the case of B1, the Kd is reported as 14 µM.
